In patent publication US9283300B2, “Use of midkine protein and the protein-containing medical device” (GENERAL REGENERATIVES, LTD, priority 2009, dated 2016):
Where “and” joins values, the source holds several entries; their conditions need not be identical. Identical values can stand only once.

Experiments:
[1] = tested on: cartilage of normal rat (articular, ear, tracheal, intervertebral disc); experiment: rhMK effect on cartilage thickness of normal rats (subcutaneous injection, histology); assay type: in vivo; conditions: rhMK 175 μg/kg s.c. daily for a week
Protocol: Method. 8-weeks-old male C57BL/6J mice were injected subcutaneously with recombinant human MK (rhMK) or control saline. The injection volume was 0.5 ml, given daily for a week. The mice were grouped (3 animals per group): Saline (NS) group, rhMK groups injected with various dosages at 10, 33, 100, 300, 900 μg/kg. Rats were injected with saline or rhMK (175 μg/kg) daily for a week. Rabbits were injected with saline or rhMK (92.5 μg/kg) daily for two week. Histological observation and evaluation. The knee joint tissues of all mice and rats were fixed in 10% (v/v) formalin for 1 day, the tissues of rabbits were fixed for 2 days. The fixed tissues were subjected to demineralization in liquid (7% AlCl3.6H2O, 5% methanoic acid, 8.5% HCl) 4 days for mouse and rats issues, and 10 days for rabbit tissues. The demineralized tissues were subjected to dehydration by gradient ethanol, and treated for transparency by xylene, and embedded in wax. Tissue sections were prepared by the paraffin slicing machine (Laica), and stained with hemotoxylin/eosin or Safranine O/fast green staining. Slides were observed under microscope and analyzed. The thickness of cartilage tissues were measured by the vernier caliper on microscope. Three tissue sections from each sample were measured and analyzed statisticaly. The distance between surface of cartilage to subchondral tide line was measured at ½ position of femoral condyle to denote the thickness of knee-joint cartilage. The thickness of cartilage at central part of ears was measured to denote the thickness of ear elastic cartilage. The distance between out surface of annulus to nucleus of the intervertebral disc was measured to denote the thickness of thoracic intervertebral disc (T2-3). To verify the results of rhMk in mice, we performed the same experiments in vivo using commonly used laboratory animals, rat and rabbit. Rats were injected subcutaneously with rhMK at 175 μg/kg/day for one week, and rabbits was injected subcutaneously 92.5 ug/kg/day for two weeks. […] The injection dose of rhMK: mice was injected subcutaneously 300 μg/kg daily for a week; rats were injected 175 μg/kg daily for a week; and New Zealand rabbits was injected 92.5 μg/kg daily for two weeks. Three animals per group were analyzed.

[2] = tested on: rat articular chondrocyte; experiment: Cell expansion in passaged monolayer culture; assay type: cell-based
Protocol: (§1) 1. Preparation of primary chondrocyte. The 8-week-old male SD rats were sacrificed under sterile conditions. The articular cartilage, fibrocartilage and elastic cartilage tissue were isolated from the femur joints, meniscus and outer ear respectively using a scalpel. The isolated cartilage were cut into small pieces, washed twice with phosphate buffered saline (PBS), and digested with trypsin (0.25% (w/v) trypsin/0.02% (w/v) EDTA) at 37° C. for 30 min. The articular cartilage and elastic cartilage were further digested with 0.2% type II collagenase for additional 16 h, and the fibrocartilage were further digested with 0.15% type I collagenase for additional 16 h. After digestion, three chondrocytes were passed through 100 μm filter (Falcon, USA) into 15 ml centrifuge tubes, centrifuged at room temperature at 2000 rpm for 5 min. Cells were resuspended in DMEM containing 10% FBS (fetal bovine serum). Trypan blue staining of the freshly isolated cells was used to monitor the percentage of live cells under the microscope. When the number of live cells is more than 95%, it was used for subsequent experiments.
(§2) 3. Culture of primary chondrocytes in monolayer. Three types of primary chondrocytes were suspended in DMEM medium containing 10% FBS, adjusted to 5×10^4 cells/ml, added to 6-well plate with 2 ml medium/well, and incubated in 37° C. at 5% CO2. Experiment was divided into two groups: control group and experimental group (with 3 μg/ml rhMK). Cell medium was changed every two days. When the cells grew to the confluence of 85% to 90%, the cells were collected by trypsin digestion, washed in PBS by centrifugation. The cells were resuspended in DMEM containing 10% FBS. Cell survival was monitored by trypan blue staining. Part of the cells were used for cell passage; some were for RNA extraction; some were cytospined onto a glass slide for later immunohistochemical staining and the slides were stored at −80° C. Primary cells or passage 0 (P0) were cultured for 7 days. The newly passaged cells were further cultured in a 6-well plate for 3 days which was then collected by trypsin-digestion and marked as passage P1. The cell amplification at each passage=total number of cells at output/total number of cells at initial input.

[3] = tested on: rat auricular chondrocyte; experiment: Cell expansion in passaged monolayer culture; assay type: cell-based
Protocol: as §1, §2

rat fibrochondrocyte = experiment: Cell expansion in passaged monolayer culture; assay type: cell-based
Protocol: as §1, §2

[4] = P0, rhMK 3 μg/ml versus no rhMK
[5] = P1, rhMK 3 μg/ml versus no rhMK
[6] = P2, rhMK 3 μg/ml versus no rhMK

B1: rhMK: recombinant human midkine mature protein (SEQ ID NO.1) expressed in E. coli and purified by ion-exchange chromatography (protein, listed as Homo sapiens)
chain: MKKKDKVKKGGPGSECAEWAWGPCTPSSKDCGVGFREGTCGAQTQRIRCRVPCNWKKEFGADCKYKFENWGACDGGTGTKVRQGTLKKARYNAQCQETIRVTKPCTPKTKAKAKAKKGKGKD
[1]
  Cartilage thickness, Ear: 107 ± 3.4 µm
  Cartilage thickness, Femoral condyle: 263 ± 54.4 µm
  Cartilage thickness, Intervertbral disc (T2-3): 659 ± 40.8 µm
  Cartilage thickness, Trachea: 246 ± 9.1 µm
[2]; P0, rhMK 3 μg/ml
  Cell expansion (in fold): 13.5 ± 1.2 fold
[2]; [4]
  Proliferation rate (%): 112%
[2]; P1, rhMK 3 μg/ml
  Cell expansion (in fold): 12.0 ± 1.4 fold
[2]; [5]
  Proliferation rate (%): 74%
[2]; P2, rhMK 3 μg/ml
  Cell expansion (in fold): 11.5 ± 0.5 fold
[2]; [6]
  Proliferation rate (%): 48%
[3]; P0, rhMK 3 μg/ml
  Cell expansion (in fold): 7.9 ± 0.1 fold
[3]; [4]
  Proliferation rate (%): 65%
[3]; P1, rhMK 3 μg/ml
  Cell expansion (in fold): 16.1 ± 1.1 fold
[3]; [5]
  Proliferation rate (%): 66%
[3]; P2, rhMK 3 μg/ml
  Cell expansion (in fold): 8.2 ± 1.0 fold
[3]; [6]
  Proliferation rate (%): 55%
Rat fibrochondrocyte; P0, rhMK 3 μg/ml
  Cell expansion (in fold): 5.3 ± 1.3 fold
Rat fibrochondrocyte; [4]
  Proliferation rate (%): 112% and 110%
Rat fibrochondrocyte; P1, rhMK 3 μg/ml
  Cell expansion (in fold): 28.1 ± 3.4 fold
Rat fibrochondrocyte; [5]
  Proliferation rate (%): 51%
Rat fibrochondrocyte; P2, rhMK 3 μg/ml
  Cell expansion (in fold): 20.9 ± 0.9 fold
Rat fibrochondrocyte; [6]
  Proliferation rate (%): 35%
